Test [1] has as its target growth hormone secretagogue receptor type 1a (human) (UniProt Q92847). The test is described as follows: cell-based or functional assay.
The next test relates to PC3 cells. The test is described as follows: Cell proliferation assay (MTT dye method), PC3 cells. It counts as cell-based, human. The conditions noted are these: 5 nM ghrelin, 3 days, 10% FCS. Here is the method: FIG. 13: The effect of ghrelin on PC3 cells. Cell proliferation was determined using the MTT dye method. Absorbance readings for each were converted to percentage above control±SEM, indicated by error bars. * denotes P values <0.01, ** P<0.001 (one-way ANOVA with Tukey's post hoc comparisons). Data represents one of 3 identical experiments, each n=16.
(§1) PC3, MDAMB231 and Ishikawa cells were cultured in 96 well plates for 3 days at 37° C. in the presence of ghrelin (0-20 nM), in 10% FCS. Negative controls received no treatment. After aspiration of medium, cells were incubated in MTT (Sigma) solution (0.5 mg/ml) for 2h. MTT solution was aspirated and formazan salts solubilised in dimethyl sulfoxide (ICN, Costa Mesa, Calif.). A Biomeck Plate reader (Beckman, QLD, Australia) was used to measure absorbances (550/650nm).
A general note: Tetrazolium dyes change colour on reduction, which living cells bring about.

Another test concerns MDA-MB 231 cells. Put plainly: Cell proliferation assay (MTT dye method), MDA-MB 231 cells. It counts as cell-based, human. Particulars: ghrelin 0-20 nM, 3 days, 10% FCS. Here is the method: (§2) FIG. 14: The effect of ghrelin on MDA-MB231 and Ishikawa cells. Cell proliferation was determined using the MTT dye method. Absorbance readings for each were converted to percentages above control±SEM, indicated by error bars. * denotes P values <0.01, ** P<0.001 (one-way ANOVA with Tukey's post hoc comparisons).
as §1

A further test concerns Ishikawa cells. Put plainly: Cell proliferation assay (MTT dye method), Ishikawa cells. It is filed as cell-based, human. The conditions noted are these: ghrelin 0-20 nM, 3 days, 10% FCS. Here is the method: as §2, §1

Sequence of UniProt Q92847 (Q92847 whole entry): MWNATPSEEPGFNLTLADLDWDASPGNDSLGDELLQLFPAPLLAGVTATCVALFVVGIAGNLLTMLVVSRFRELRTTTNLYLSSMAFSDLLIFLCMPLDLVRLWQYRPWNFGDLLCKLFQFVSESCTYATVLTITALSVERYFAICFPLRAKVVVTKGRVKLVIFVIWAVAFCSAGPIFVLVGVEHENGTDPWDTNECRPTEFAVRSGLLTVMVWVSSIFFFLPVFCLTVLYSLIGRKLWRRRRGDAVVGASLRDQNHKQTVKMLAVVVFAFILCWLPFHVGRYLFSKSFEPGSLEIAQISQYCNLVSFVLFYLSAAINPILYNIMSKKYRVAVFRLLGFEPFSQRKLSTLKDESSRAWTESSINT

“human ghrelin (from UniProt Q9UBU3 24-117) (peptide)” showed a Cell proliferation of PC3 cells (MTT dye method) (% above controls) in test [1] of 33.

B1: ghrelin (peptide)
peptide: GSSFLSPEHQRVQQRKESKKPPAKLQPRALAGWLRPEDGGQAEGAEDELEVRFNAPFDVGIKLSGVQYQQHSQALGKFLQDILWEEAKEAPADK
notes: endogenous ligand for the GHS-R, a 28 amino acid peptide
As for B1, the “viable cell numbers increased above controls (peak of dose-related increase)” value with PC3 cells is 33%. The “dose related increase in cell proliferation above untreated controls (peak)” value in the test on MDA-MB 231 cells is on record as 25%; in the test on Ishikawa cells it was 19%.

(Values after patent US20040157227A1, “Reproductive cancer diagnosis and therapy” (priority 2001, published 2004).)
